In one assay the target is T1, GAL4 BD-ZapD fusion (E. coli, UniProt P36680 1-247).
T1 construct: ZapD, Z-ring stabilizer of E. coli; also called pDEST-GBKT7-zapD; source: yeast two-hybrid fusion (pDEST-GBKT7-zapD in S. cerevisiae PJ69-4A, diploid after mating)
T1 sequence (looked up): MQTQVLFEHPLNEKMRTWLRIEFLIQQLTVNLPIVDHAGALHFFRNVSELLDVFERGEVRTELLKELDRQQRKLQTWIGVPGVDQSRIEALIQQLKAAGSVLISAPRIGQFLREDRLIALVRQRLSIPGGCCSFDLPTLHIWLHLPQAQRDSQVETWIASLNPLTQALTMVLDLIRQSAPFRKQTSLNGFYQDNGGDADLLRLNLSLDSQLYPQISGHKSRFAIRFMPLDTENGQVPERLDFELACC
In words: two-hybrid; GAL4 BD-ZapD with GAL4 AD-FtsZ fusions in diploid yeast grown in YNB (-Leu-Trp) at 30°C; beta-galactosidase activity in Miller units, mean of 10 independent trials. The note with it: partners not purified.

The target of a further assay is T2, FtsZ(DQAK) (purified) (E. coli, UniProt P0A9A6 1-383, CTV KQAD replaced by DQAK).
T2 construct: FtsZ of E. coli with the native CTV KQAD replaced by DQAK (net-neutral); pKHH9, pET-21b(+); also called net-neutral CTV mutant; source: E. coli C41(DE3), purified (25% saturated ammonium sulfate cut)
T2 sequence (looked up): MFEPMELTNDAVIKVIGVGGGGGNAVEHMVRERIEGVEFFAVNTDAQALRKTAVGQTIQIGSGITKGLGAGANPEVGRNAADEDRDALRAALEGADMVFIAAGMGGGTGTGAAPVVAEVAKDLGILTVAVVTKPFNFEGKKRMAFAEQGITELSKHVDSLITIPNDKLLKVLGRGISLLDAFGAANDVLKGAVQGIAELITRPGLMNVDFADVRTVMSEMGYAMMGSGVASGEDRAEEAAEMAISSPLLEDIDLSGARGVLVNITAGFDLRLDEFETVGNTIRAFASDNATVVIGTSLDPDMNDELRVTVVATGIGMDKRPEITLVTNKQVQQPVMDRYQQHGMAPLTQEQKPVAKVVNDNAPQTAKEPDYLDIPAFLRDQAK
In words: co-sedimentation; FtsZ or CTV mutant 5 μM with ZapD 1 or 5 μM in 50 mM K-MOPS pH 6.5, 50 mM KCl, 2.5 mM MgCl2, 3 μM BSA, 1 mM GTP, room temperature; TLA100.2, 80,000 rpm, 10 min; ZapD in the pellet by SDS-PAGE. Particulars: both partners purified.

Another assay has as its target T3, FtsZ(QQQQ) (purified) (E. coli, UniProt P0A9A6 1-383, CTV KQAD replaced by QQQQ).
T3 construct: FtsZ of E. coli with the native CTV KQAD replaced by QQQQ (net-neutral); pLT1, pET-21b(+); also called net-neutral CTV mutant; source: E. coli C41(DE3), purified (25% saturated ammonium sulfate cut)
T3 sequence (looked up): T2 sequence (looked up) with D380Q, A382Q, K383Q
The assay is described as above. The note with it: both partners purified.

The next assay deals with T4, FtsZ(RQAR) (purified) (E. coli, UniProt P0A9A6 1-383, CTV KQAD replaced by RQAR).
T4 construct: FtsZ of E. coli with the native CTV KQAD replaced by RQAR (net-positive); pAM3, pET-21b(+); also called net-positive CTV mutant; source: E. coli C41(DE3), purified (25% saturated ammonium sulfate cut)
T4 sequence (looked up): T2 sequence (looked up) with D380R, K383R
The assay is described as above. The note with it: both partners purified.

The next assay has as its target T5, FtsZ(KQAK) (purified) (E. coli, UniProt P0A9A6 1-383, CTV KQAD replaced by KQAK).
T5 construct: FtsZ of E. coli with the native CTV KQAD replaced by KQAK (net-positive); pKHH8, pET-21b(+); also called net-positive CTV mutant; source: E. coli C41(DE3), purified (25% saturated ammonium sulfate cut)
T5 sequence (looked up): T2 sequence (looked up) with D380K
The assay is described as above. Particulars: both partners purified.

Changes are numbered by the printed parent chain.

B1: GAL4 AD-FtsZ(NRNKRG) fusion (natural protein, E. coli | B. subtilis)
chain: MFEPMELTNDAVIKVIGVGGGGGNAVEHMVRERIEGVEFFAVNTDAQALRKTAVGQTIQIGSGITKGLGAGANPEVGRNAADEDRDALRAALEGADMVFIAAGMGGGTGTGAAPVVAEVAKDLGILTVAVVTKPFNFEGKKRMAFAEQGITELSKHVDSLITIPNDKLLKVLGRGISLLDAFGAANDVLKGAVQGIAELITRPGLMNVDFADVRTVMSEMGYAMMGSGVASGEDRAEEAAEMAISSPLLEDIDLSGARGVLVNITAGFDLRLDEFETVGNTIRAFASDNATVVIGTSLDPDMNDELRVTVVATGIGMDKRPEITLVTNKQVQQPVMDRYQQHGMAPLTQEQKPVAKVVNDNAPQTAKEPDYLDIPAFLRNRNKRG
notes: FtsZ of E. coli up to the CTV; the native CTV KQAD (380-383) is replaced by the next part; also called E. coli FtsZ with the B. subtilis CTV; source: yeast two-hybrid fusion (pDEST-GADT7-ftsZ(NRNKRG) in S. cerevisiae SL3004, diploid after mating)
B1 had a β-galactosidase activity with GAL4 BD-ZapD fusion of 106 Miller units.

B2: ZapD (purified) (natural protein, E. coli, UniProt P36680 1-247, looked up)
chain: T1 sequence (looked up)
notes: ZapD, Z-ring stabilizer of E. coli; also called purified ZapD; pET28b-His10-Smt3-ZapD
As to B2, the binding result in the assay with FtsZ(DQAK) (purified), with FtsZ(QQQQ) (purified), with FtsZ(RQAR) (purified) and with FtsZ(KQAK) (purified) was “binds” throughout.

The values are drawn from article PMC4835091, “Characterization of the FtsZ C-Terminal Variable (CTV) Region in Z-Ring Assembly and Interaction with the Z-Ring Stabilizer ZapD in E. coli Cytokinesis” (PLoS ONE, 2016).
